Assay results published in patent US20250099548A1, “PHARMACEUTICAL COMPOSITION FOR PREVENTING OR TREATING DEGENERATIVE BRAIN DISEASES, CONTAINING GLUCAGON-LIKE PEPTIDE-1 AND INTERLEUKIN-1 RECEPTOR ANTAGONIST” (GI INNOVATION, INC., priority 2022, published 2025).

Columns and labels:
[1] = in vivo; cited from earlier work
[2] = tested on: Tg-APP/PS1 mice; assay: MAP-2 immunofluorescence staining of hippocampal CA1 region; format: in vivo, mouse; conditions: Example 2; GI210B1, GI210B1C1, GI210B1CN at 1.2, 0.7778, 1.1745 mg/kg intraperitoneal, 4 times for 2 weeks
Source text: Long-term memory is regulated at synapses between axons of neurons and dendrites of target neurons, and the microstructure of neurons is greatly influenced by the state of neuron health. Changes in the microstructure of dendrites of neurons are important for maintaining memory. The microstructure of the dendrites of such neurons can be observed as an image by staining with an anti-MAP-2 antibody (GeneTex, CatNo. GTX133109) located in the dendrites.
Therefore, in order to determine the mechanism of action of cognitive function improvement and memory recovery effects of GI210B1, the Tg-APP/PS1 mice administered with GI210B1 (Tg+GI210B1), the wild type mice (WT) as a normal group, and the Tg-APP/PS1 mice (Tg or Tg+Veh) as a control group were sacrificed, and then the brain tissue was extracted, and the microstructural status of the dendrites (dendritic process) of the hippocampus was analyzed.
In the same manner as in Example 1.4.1 above, the mice from each group were sacrificed, and then the brain tissue was extracted, and the microstructural status of the dendrites of the hippocampus was analyzed.

[3] = tested on: Tg-APP/PS1 mice; assay: Aβ plaque deposition in brain tissue, thioflavin S staining; format: in vivo, mouse; conditions: Example 2; GI210B1, GI210B1C1, GI210B1CN at 1.2, 0.7778, 1.1745 mg/kg intraperitoneal, 4 times for 2 weeks
Description: Accordingly, in order to confirm the effect of treating Alzheimer's disease by intraperitoneal administration of GI210B1, the Tg-APP/PS1 mice administered with GI210B1 (Tg+GI210B1) and the Tg-APP/PS1 mice (Tg+Veh), a control group, were sacrificed, and then the brain tissue was extracted, and Aβ plaques were stained using thioflavin S, and then the degree of Aβ plaque deposition in the parietal cortex, hippocampus, and piriform cortex regions was analyzed.
Specifically, for immunohistochemical analysis using thioflavin S staining, the brain was collected after perfusion for the mouse with 4% paraformaldehyde, and then the brain was further fixed with 4% paraformaldehyde overnight at 4° C. The brain tissue sections were prepared by cutting the fixed brain tissue to a thickness of […] using a vibratome. The prepared brain tissue sections were stained using thioflavin S by a known method. At that time, the stained image was analyzed using MetaMorph Microscopy Automation & Image Analysis software (Molecular device). The amount of plaque was quantified and expressed as the number of plaques per unit area and the sum of the plaque areas.
The Tg-APP/PS1 mice were prepared in the same manner as in Example 1.1 above. The test substance was prepared by diluting GI210B1, GI210B1C1, or GI210B1CN obtained in Preparation Example 1 to 3 in saline. Thereafter, the prepared test substances were each intraperitoneally administered to the 6.5-month-old Tg-APP/PS1 mice at a concentration of 1.2 mg/kg, 0.7778 mg/kg, and 1.1745 mg/kg a total of 4 times for 2 weeks (FIG. 23).
In the same manner as in Example 1.3 above, the mice were sacrificed, and then the brain tissue was extracted, and the degree of Aβ plaque deposition in the parietal cortex, hippocampus, and piriform cortex regions was analyzed using thioflavin S, which stains Aβ plaques.
The Tg-APP/PS1 mice were prepared in the same manner as in Example 1.1 above. The test substance was prepared by diluting GLP-1 (Peptron), GI210B1C1 obtained in Preparation Example 2 and GI212B2 obtained in Preparation Example 4, anakinra (Amgen, Kineret-inj), and the anti-IL-1 antibody (BioXcell, BE0246) in saline to concentrations of 0.0371 mg/kg, 1.1745 mg/kg, 1.8722 mg/kg, 0.2041 mg/kg, and 1.77 mg/kg, respectively. Thereafter, the prepared test substances were intraperitoneally administered to the 6.5-month-old Tg-APP/PS1 mice a total of 4 times for 2 weeks, as shown in Table 6 below (FIG. 30). […]
In the same manner as in Example 1.3 above, the mice from each group were sacrificed, and then the brain tissue was extracted, and the degree of Aβ plaque deposition in the parietal cortex, hippocampus, and piriform cortex regions was analyzed using thioflavin S, which stains Aβ plaques.

Molecule	biological half-life [1]	expression level of MAP-2 in the CA1 region of the hippocampus [2]	amount of plaque deposited in the brain (number of plaques per unit area and sum of plaque areas) [3]
wild type GLP-1: wild type glucagon-like peptide-1, cleaved and inactivated by DPP-4 in vivo; SEQ ID NO: 1	1-2 minutes	–	–
GI210B1CN: fusion protein dimer comprising GLP-1 and an Fc domain of IgG4; SEQ ID NO: 22 (protein, dimer; GLP-1-IgG4 Fc) HGEGTFTSDVSSYLEEQAAKEFIAWLVKGGGGGGGSGGGGSGGGGSGGAESKYGPPCPPCPAPEAAGGPSVFLFPPKPKDQLMISRTPEVTCVVVDVSQEDPEVQFNWYVDGVEVHNAKTKPREEQFNSTYRVVSVLTVLHQDWLNGKEYKCKVSNKGLPSSIEKTISKAKGQPREPQVYTLPPSQEEMTKNQVSLTCLVKGFYPSDIAVEWESNGQPENNYKTTPPVLDSDGSFFLYSRLTVDKSRWQEGNVFSCSVLHEALHNHYTQKSLSLSLG	–	higher than that of the control group (Tg+Veh)	tended to be reduced
